Experimental data published in publication PMC5919072.

Tests used:
Assay in all cases: SEC-MALS; static light scattering (MiniDAWN TREOS, three angles) inline with size exclusion on Superdex S75 10/300; 100 mM Na-phosphate pH 7.4, 400 mM NaCl; PfMDH-WT injected at 1.0 mg/ml
[1] = biological target: Wild-type malate dehydrogenase from Plasmodium falciparum (PfMDH-WT), His6-tagged (Plasmodium falciparum)
[2] = biological target: PfMDH-V190W, His6-tagged (Plasmodium falciparum)
[3] = biological target: PfMDH-E18Q, His6-tagged (Plasmodium falciparum)
[4] = biological target: PfMDH-E18W, His6-tagged (Plasmodium falciparum)

“Wild-type malate dehydrogenase from Plasmodium falciparum (PfMDH-WT), His6-tagged (enzyme)” showed a stoichiometry N [1] of 4.
PfMDH-V190W, His6-tagged (enzyme) gave a stoichiometry N [2] of 2.
Work on PfMDH-E18Q, His6-tagged (enzyme) yielded a stoichiometry N [3] of 4.
With PfMDH-E18W, His6-tagged (enzyme) the stoichiometry N [4] was 2.
